# Measured values reported in the supplement of paper PMC10065799, “High-throughput profiling of sequence recognition by tyrosine kinases and SH2 domains using bacterial peptide display” (eLife, 2023).
# System: c-Abl (mouse)
# Test: phosphorylation enrichment, bacterial display (enrichment ratio); higher = better substrate or ligand; peptides without Tyr show the background
# 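Note: 11-residue human phosphosite peptides and single-mutation variants displayed on the E. coli surface, counted by deep sequencing, each peptide's frequency after selection divided by its frequency in the unselected input library; frequency after pTyr selection over input frequency; kinase dosed for 20-30% of maximal phosphorylation in three min.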
row,Sequence,phosphorylation enrichment
1,CTTIHYNFMCN [TP53_Y234_Y236F],0.661
2,GLAKEYIDPET [CSNK1G2_Y195],0.592
3,MSYDRYMAICH [OR2A5_Y123],0.695
4,LFSNAYLNDLA [ALDH1A1_Y119_YF],1.14
5,CTTIHQNFMCN [TP53_Y234_Y234Q_YF],0.497
6,ATPKGYERDAS [OTC_Y223_P225R],0.421
7,SIKNKYVTALF [KCNH2_Y611_D609N_YF],0.487
8,NKEAICSGYIR [SMCHD1_Y283_Y283C],1.3
9,HVKHNYECLVY [XRCC5_Y416_I412V],1.01
10,LPEENYQVLCF [ARHGAP1_Y365_R369C],3.14
11,MICSAYALGGL [CPS1_Y590_R587C],0.811
12,SETSRYLSELF [KCNJ3_Y67_D70E],0.535
13,ILGRFYETSSI [PAX2_Y73_G76S_YF],0.606
14,FAKTQYPDIYA [CRX_Y63_V66I],0.526
15,FSGLAYTMERS [GLUD1_Y512_H507Y_YF],0.613
16,DFDNLYYWDQD [ERBB2_Y1221_A1216D],0.973
17,YSKTQYNQVPS [CXADR_Y318],0.729

row,Sequence,phosphorylation enrichment
1,ALMGPYHGQVL [HADHA_Y343_L342P],0.61
2,VQQVIYATGAL [MYH7_Y422],25.3
3,PSNTDYPGPHS [TP63_Y171],1.01
4,HIPFRYPKEFQ [IDS_Y234],0.946
5,RLAKTYETTLK [ALB_Y377_E382K],1.65
6,HRDSSYYWEIE [RAF1_Y340_Q335H],0.818
7,INITIYGKTFR [EFHC1_Y177],1.05
8,SKDQIYPMKLK [RANBP17_Y823],0.449
9,RSPLRYTSILT [OR51B6_Y130],0.632
10,KELSNYKHLTL [SLIT2_Y776],0.522
11,TLQSMFGCDVG [HLA-B_Y123_Y123F],0.637
12,QNRELYSEGLG [CNKSR1_Y665],1.33
13,ALPGEYIPTVF [RAC1_Y32_F28L],0.7
14,PSPMPCASCQM [FOXL2_Y215_Y215C],0.799
15,MSRLKYPVSQQ [BTK_Y375_I370M],0.573
16,VTGWGYRKLRD [F11_Y521],0.477

# Target: Hck (UniProt P08631)
# Sequence (P08631 whole entry, looked up): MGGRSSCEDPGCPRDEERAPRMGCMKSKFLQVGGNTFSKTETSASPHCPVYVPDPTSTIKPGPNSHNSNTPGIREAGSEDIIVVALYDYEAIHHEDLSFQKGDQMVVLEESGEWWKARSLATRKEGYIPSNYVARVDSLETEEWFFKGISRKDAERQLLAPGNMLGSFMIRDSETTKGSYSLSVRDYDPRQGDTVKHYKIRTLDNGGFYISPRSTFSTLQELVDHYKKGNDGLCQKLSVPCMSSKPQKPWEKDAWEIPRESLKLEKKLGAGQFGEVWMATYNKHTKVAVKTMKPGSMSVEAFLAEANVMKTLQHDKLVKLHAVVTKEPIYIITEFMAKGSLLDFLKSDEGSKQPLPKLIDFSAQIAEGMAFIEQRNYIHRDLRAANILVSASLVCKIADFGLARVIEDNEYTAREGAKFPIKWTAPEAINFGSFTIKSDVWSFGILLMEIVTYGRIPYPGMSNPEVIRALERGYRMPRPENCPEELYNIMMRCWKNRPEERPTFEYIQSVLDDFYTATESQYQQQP
# Test: as above
row,Sequence,phosphorylation enrichment
1,CTTIHYNFMCN [TP53_Y234_Y236F],0.456
2,GLAKEYIDPET [CSNK1G2_Y195],0.449
3,MSYDRYMAICH [OR2A5_Y123],0.646
4,LFSNAYLNDLA [ALDH1A1_Y119_YF],1
5,CTTIHQNFMCN [TP53_Y234_Y234Q_YF],0.397
6,ATPKGYERDAS [OTC_Y223_P225R],0.399
7,SIKNKYVTALF [KCNH2_Y611_D609N_YF],0.465
8,NKEAICSGYIR [SMCHD1_Y283_Y283C],0.424
9,HVKHNYECLVY [XRCC5_Y416_I412V],0.842
10,LPEENYQVLCF [ARHGAP1_Y365_R369C],4.43
11,MICSAYALGGL [CPS1_Y590_R587C],0.72
12,SETSRYLSELF [KCNJ3_Y67_D70E],0.464
13,ILGRFYETSSI [PAX2_Y73_G76S_YF],0.531
14,FAKTQYPDIYA [CRX_Y63_V66I],0.709
15,FSGLAYTMERS [GLUD1_Y512_H507Y_YF],0.486
16,DFDNLYYWDQD [ERBB2_Y1221_A1216D],5.31
17,YSKTQYNQVPS [CXADR_Y318],0.343

row,Sequence,phosphorylation enrichment
1,ALMGPYHGQVL [HADHA_Y343_L342P],0.384
2,VQQVIYATGAL [MYH7_Y422],7.57
3,PSNTDYPGPHS [TP63_Y171],0.482
4,HIPFRYPKEFQ [IDS_Y234],0.564
5,RLAKTYETTLK [ALB_Y377_E382K],0.459
6,HRDSSYYWEIE [RAF1_Y340_Q335H],1.47
7,INITIYGKTFR [EFHC1_Y177],0.573
8,SKDQIYPMKLK [RANBP17_Y823],0.361
9,RSPLRYTSILT [OR51B6_Y130],0.443
10,KELSNYKHLTL [SLIT2_Y776],0.384
11,TLQSMFGCDVG [HLA-B_Y123_Y123F],0.489
12,QNRELYSEGLG [CNKSR1_Y665],0.895
13,ALPGEYIPTVF [RAC1_Y32_F28L],0.492
14,PSPMPCASCQM [FOXL2_Y215_Y215C],0.41
15,MSRLKYPVSQQ [BTK_Y375_I370M],0.435
16,VTGWGYRKLRD [F11_Y521],0.42

# Target: Jak2 (UniProt O60674)
# Sequence (O60674 whole entry, looked up): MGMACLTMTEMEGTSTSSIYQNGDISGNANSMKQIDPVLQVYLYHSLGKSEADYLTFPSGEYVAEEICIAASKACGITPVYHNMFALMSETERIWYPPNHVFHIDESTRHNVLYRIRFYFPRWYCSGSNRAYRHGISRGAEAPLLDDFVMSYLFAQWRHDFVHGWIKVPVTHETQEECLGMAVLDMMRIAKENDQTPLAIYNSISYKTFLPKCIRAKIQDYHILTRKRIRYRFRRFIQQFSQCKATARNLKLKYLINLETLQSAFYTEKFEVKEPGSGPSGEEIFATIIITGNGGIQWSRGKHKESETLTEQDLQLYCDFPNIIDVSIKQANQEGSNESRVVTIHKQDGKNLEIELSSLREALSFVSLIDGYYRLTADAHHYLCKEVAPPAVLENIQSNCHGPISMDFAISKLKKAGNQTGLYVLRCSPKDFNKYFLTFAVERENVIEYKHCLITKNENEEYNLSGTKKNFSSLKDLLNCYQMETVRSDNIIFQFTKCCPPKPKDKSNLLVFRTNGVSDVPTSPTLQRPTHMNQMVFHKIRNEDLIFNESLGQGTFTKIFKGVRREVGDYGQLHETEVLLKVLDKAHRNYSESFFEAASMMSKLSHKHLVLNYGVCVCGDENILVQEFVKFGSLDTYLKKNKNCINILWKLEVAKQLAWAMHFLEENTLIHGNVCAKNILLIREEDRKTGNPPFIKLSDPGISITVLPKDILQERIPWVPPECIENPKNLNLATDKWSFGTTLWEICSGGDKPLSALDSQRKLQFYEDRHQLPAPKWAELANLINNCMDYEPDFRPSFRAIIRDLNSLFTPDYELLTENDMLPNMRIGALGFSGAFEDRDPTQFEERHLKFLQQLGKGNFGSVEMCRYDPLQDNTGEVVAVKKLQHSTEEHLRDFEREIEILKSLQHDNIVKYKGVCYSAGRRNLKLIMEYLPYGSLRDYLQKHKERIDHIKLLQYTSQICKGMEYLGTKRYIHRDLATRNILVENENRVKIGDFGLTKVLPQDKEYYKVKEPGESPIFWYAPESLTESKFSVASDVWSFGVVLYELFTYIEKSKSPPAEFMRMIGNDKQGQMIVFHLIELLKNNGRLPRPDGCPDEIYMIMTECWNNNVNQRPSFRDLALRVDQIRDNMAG
# Test: as above
row,Sequence,phosphorylation enrichment
1,CTTIHYNFMCN [TP53_Y234_Y236F],0.824
2,GLAKEYIDPET [CSNK1G2_Y195],0.904
3,MSYDRYMAICH [OR2A5_Y123],0.895
4,LFSNAYLNDLA [ALDH1A1_Y119_YF],1.11
5,CTTIHQNFMCN [TP53_Y234_Y234Q_YF],0.575
6,ATPKGYERDAS [OTC_Y223_P225R],0.551
7,SIKNKYVTALF [KCNH2_Y611_D609N_YF],0.566
8,NKEAICSGYIR [SMCHD1_Y283_Y283C],0.875
9,HVKHNYECLVY [XRCC5_Y416_I412V],1.12
10,LPEENYQVLCF [ARHGAP1_Y365_R369C],5.17
11,MICSAYALGGL [CPS1_Y590_R587C],0.983
12,SETSRYLSELF [KCNJ3_Y67_D70E],0.783
13,ILGRFYETSSI [PAX2_Y73_G76S_YF],0.665
14,FAKTQYPDIYA [CRX_Y63_V66I],0.563
15,FSGLAYTMERS [GLUD1_Y512_H507Y_YF],0.7
16,DFDNLYYWDQD [ERBB2_Y1221_A1216D],1.86
17,YSKTQYNQVPS [CXADR_Y318],0.502

row,Sequence,phosphorylation enrichment
1,ALMGPYHGQVL [HADHA_Y343_L342P],0.485
2,VQQVIYATGAL [MYH7_Y422],1.38
3,PSNTDYPGPHS [TP63_Y171],0.768
4,HIPFRYPKEFQ [IDS_Y234],0.815
5,RLAKTYETTLK [ALB_Y377_E382K],0.607
6,HRDSSYYWEIE [RAF1_Y340_Q335H],1.03
7,INITIYGKTFR [EFHC1_Y177],1.4
8,SKDQIYPMKLK [RANBP17_Y823],0.493
9,RSPLRYTSILT [OR51B6_Y130],0.655
10,KELSNYKHLTL [SLIT2_Y776],0.543
11,TLQSMFGCDVG [HLA-B_Y123_Y123F],0.852
12,QNRELYSEGLG [CNKSR1_Y665],0.497
13,ALPGEYIPTVF [RAC1_Y32_F28L],1.12
14,PSPMPCASCQM [FOXL2_Y215_Y215C],0.766
15,MSRLKYPVSQQ [BTK_Y375_I370M],0.54
16,VTGWGYRKLRD [F11_Y521],0.655

# Target: EPHB2 (UniProt P29323)
# Sequence (P29323 whole entry, looked up): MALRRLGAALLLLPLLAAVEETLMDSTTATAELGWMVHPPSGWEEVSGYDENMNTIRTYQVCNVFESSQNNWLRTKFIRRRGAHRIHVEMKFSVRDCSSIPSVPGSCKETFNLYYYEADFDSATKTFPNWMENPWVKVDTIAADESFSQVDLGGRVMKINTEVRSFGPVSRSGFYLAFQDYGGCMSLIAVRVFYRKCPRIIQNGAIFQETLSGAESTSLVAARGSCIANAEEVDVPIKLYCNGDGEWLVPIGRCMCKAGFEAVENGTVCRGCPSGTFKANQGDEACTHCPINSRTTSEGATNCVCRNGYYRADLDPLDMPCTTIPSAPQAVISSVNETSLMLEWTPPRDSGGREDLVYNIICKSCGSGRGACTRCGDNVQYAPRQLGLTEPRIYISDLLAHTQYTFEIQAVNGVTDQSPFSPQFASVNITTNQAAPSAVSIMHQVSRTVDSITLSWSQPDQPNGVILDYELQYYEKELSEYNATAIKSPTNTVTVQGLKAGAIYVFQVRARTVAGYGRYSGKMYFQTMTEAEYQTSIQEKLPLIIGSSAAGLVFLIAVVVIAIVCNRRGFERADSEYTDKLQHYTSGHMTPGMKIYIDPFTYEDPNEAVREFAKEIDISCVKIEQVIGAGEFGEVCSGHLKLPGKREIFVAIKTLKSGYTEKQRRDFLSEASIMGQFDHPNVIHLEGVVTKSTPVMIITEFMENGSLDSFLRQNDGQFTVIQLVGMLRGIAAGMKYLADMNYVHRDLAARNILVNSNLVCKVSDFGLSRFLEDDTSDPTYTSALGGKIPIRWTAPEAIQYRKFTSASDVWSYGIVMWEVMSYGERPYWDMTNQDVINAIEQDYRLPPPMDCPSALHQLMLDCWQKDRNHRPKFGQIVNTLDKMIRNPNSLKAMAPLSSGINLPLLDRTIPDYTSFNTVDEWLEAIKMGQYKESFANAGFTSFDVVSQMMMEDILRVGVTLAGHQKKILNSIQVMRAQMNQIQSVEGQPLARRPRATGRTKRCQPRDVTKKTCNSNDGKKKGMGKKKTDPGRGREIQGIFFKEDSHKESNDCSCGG
# Test: as above
row,Sequence,phosphorylation enrichment
1,CTTIHYNFMCN [TP53_Y234_Y236F],0.485
2,GLAKEYIDPET [CSNK1G2_Y195],0.462
3,MSYDRYMAICH [OR2A5_Y123],0.704
4,LFSNAYLNDLA [ALDH1A1_Y119_YF],0.723
5,CTTIHQNFMCN [TP53_Y234_Y234Q_YF],0.497
6,ATPKGYERDAS [OTC_Y223_P225R],0.522
7,SIKNKYVTALF [KCNH2_Y611_D609N_YF],0.459
8,NKEAICSGYIR [SMCHD1_Y283_Y283C],0.547
9,HVKHNYECLVY [XRCC5_Y416_I412V],2.04
10,LPEENYQVLCF [ARHGAP1_Y365_R369C],5.96
11,MICSAYALGGL [CPS1_Y590_R587C],0.601
12,SETSRYLSELF [KCNJ3_Y67_D70E],0.498
13,ILGRFYETSSI [PAX2_Y73_G76S_YF],0.47
14,FAKTQYPDIYA [CRX_Y63_V66I],0.427
15,FSGLAYTMERS [GLUD1_Y512_H507Y_YF],0.465
16,DFDNLYYWDQD [ERBB2_Y1221_A1216D],3.3
17,YSKTQYNQVPS [CXADR_Y318],0.318

row,Sequence,phosphorylation enrichment
1,ALMGPYHGQVL [HADHA_Y343_L342P],0.41
2,VQQVIYATGAL [MYH7_Y422],0.986
3,PSNTDYPGPHS [TP63_Y171],0.661
4,HIPFRYPKEFQ [IDS_Y234],0.641
5,RLAKTYETTLK [ALB_Y377_E382K],0.681
6,HRDSSYYWEIE [RAF1_Y340_Q335H],1.72
7,INITIYGKTFR [EFHC1_Y177],0.683
8,SKDQIYPMKLK [RANBP17_Y823],0.458
9,RSPLRYTSILT [OR51B6_Y130],0.532
10,KELSNYKHLTL [SLIT2_Y776],0.409
11,TLQSMFGCDVG [HLA-B_Y123_Y123F],0.85
12,QNRELYSEGLG [CNKSR1_Y665],0.454
13,ALPGEYIPTVF [RAC1_Y32_F28L],0.595
14,PSPMPCASCQM [FOXL2_Y215_Y215C],0.287
15,MSRLKYPVSQQ [BTK_Y375_I370M],0.741
16,VTGWGYRKLRD [F11_Y521],0.517
